Data as given in IntAct's records for PubMed 19779455.

B1: E3 SUMO-protein ligase PIAS4 (Homo sapiens), Q8N2W9 (parent)
chain: MAAELVEAKNMVMSFRVSDLQMLLGFVGRSKSGLKHELVTRALQLVQFDCSPELFKKIKELYETRYAKKNSEPAPQPHRPLDPLTMHSTYDRAGAVPRTPLAGPNIDYPVLYGKYLNGLGRLPAKTLKPEVRLVKLPFFNMLDELLKPTELVPQNNEKLQESPCIFALTPRQVELIRNSRELQPGVKAVQVVLRICYSDTSCPQEDQYPPNIAVKVNHSYCSVPGYYPSNKPGVEPKRPCRPINLTHLMYLSSATNRITVTWGNYGKSYSVALYLVRQLTSSELLQRLKTIGVKHPELCKALVKEKLRLDPDSEIATTGVRVSLICPLVKMRLSVPCRAETCAHLQCFDAVFYLQMNEKKPTWMCPVCDKPAPYDQLIIDGLLSKILSECEDADEIEYLVDGSWCPIRAEKERSCSPQGAILVLGPSDANGLLPAPSVNGSGALGSTGGGGPVGSMENGKPGADVVDLTLDSSSSSEDEEEEEEEEEDEDEEGPRPKRRCPFQKGLVPAC

Variants of: B1
Conditions: with parp1_human PARP1, P09874
Chain of parp1_human PARP1, P09874 (P09874 whole entry): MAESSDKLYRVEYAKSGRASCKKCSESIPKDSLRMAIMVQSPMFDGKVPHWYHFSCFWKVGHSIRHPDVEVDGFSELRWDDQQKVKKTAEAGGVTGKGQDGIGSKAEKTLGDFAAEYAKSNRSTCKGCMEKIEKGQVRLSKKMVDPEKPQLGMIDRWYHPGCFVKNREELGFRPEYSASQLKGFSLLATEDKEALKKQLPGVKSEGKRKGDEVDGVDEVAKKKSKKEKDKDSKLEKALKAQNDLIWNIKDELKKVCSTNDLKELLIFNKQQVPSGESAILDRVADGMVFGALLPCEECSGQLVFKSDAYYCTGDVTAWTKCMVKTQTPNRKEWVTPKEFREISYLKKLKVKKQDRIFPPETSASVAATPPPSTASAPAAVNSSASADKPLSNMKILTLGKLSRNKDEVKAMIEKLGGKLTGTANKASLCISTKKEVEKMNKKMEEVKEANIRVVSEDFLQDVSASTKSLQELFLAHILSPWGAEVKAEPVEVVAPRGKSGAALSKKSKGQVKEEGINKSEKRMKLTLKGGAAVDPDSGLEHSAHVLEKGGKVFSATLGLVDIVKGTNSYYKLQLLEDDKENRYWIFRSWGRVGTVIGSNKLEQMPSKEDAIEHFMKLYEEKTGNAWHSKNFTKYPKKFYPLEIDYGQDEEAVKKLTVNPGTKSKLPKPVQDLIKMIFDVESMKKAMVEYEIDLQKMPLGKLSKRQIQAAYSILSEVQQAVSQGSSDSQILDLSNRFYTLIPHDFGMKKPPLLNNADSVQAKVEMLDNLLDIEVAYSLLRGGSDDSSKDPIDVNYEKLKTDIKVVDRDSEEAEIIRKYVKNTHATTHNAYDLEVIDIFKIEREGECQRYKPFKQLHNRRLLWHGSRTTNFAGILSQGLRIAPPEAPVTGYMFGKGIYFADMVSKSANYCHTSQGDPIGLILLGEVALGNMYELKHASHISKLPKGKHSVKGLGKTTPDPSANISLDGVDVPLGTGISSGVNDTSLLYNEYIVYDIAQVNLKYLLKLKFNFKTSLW

| Variant | effect of a mutation on the interaction |
| --- | --- |
| C342F | disrupting interaction |
